According to EP4682166A1 (Guangzhou Enmai Biotechnology Co., Ltd, dated 2026):

T1: human NMI (N-myc Interacting protein), recombinant protein (human, UniProt Q13287 1-307, limits assumed)
T1 construct: Gene ID: 9111; also called hNMI; antigen
T1 sequence (looked up): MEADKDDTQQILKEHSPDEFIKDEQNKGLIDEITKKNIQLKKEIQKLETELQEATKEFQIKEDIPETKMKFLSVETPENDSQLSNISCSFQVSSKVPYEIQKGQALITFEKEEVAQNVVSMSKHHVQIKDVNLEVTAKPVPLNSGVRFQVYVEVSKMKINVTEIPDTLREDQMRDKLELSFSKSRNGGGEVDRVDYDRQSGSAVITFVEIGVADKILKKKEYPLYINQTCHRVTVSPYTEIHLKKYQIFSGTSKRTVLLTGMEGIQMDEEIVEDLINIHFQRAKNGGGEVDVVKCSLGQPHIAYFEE


What was measured:
[1] = biological target: T1, human NMI (N-myc Interacting protein), …; assay: ELISA EC50 against parent 240B10-1
[2] = biological target: T1, human NMI (N-myc Interacting protein), …; assay: ELISA, binding to hNMI
[3] = biological target: T1, human NMI (N-myc Interacting protein), …; assay: ELISA EC50 against parent 98G10

Fold decrease in affinity [1] [fold] | EC50 [2] [pM] | Fold decrease in affinity [3] [fold] | Binder
> 500 |  |  | 240B10-1 mutant S30E (VH) (antibody, V domains shown) VH: QSLEESGGRLVTPGGSLTLTCTVSGIDLSEYTMGWVRQAPGKGLEYIGIISGGGRTYYASWAKGRFTISKTSSTTVDLKVTSLTTEDTATYFCARIYTLWGQGTLVTVSS VL: QVLTQTLASVSAAVGGTVTINCQSSQSVYNNDYLAWFQQKSGQPPKQLIHSASKLASGVPSRFKGSGSGTQFTLTINDVQCDDAATYYCLGGYDCYSADCNVFGGGTEVVVK
> 500 |  |  | 240B10-1 mutant S30K (VH) (antibody, V domains shown) VH: QSLEESGGRLVTPGGSLTLTCTVSGIDLSKYTMGWVRQAPGKGLEYIGIISGGGRTYYASWAKGRFTISKTSSTTVDLKVTSLTTEDTATYFCARIYTLWGQGTLVTVSS VL: QVLTQTLASVSAAVGGTVTINCQSSQSVYNNDYLAWFQQKSGQPPKQLIHSASKLASGVPSRFKGSGSGTQFTLTINDVQCDDAATYYCLGGYDCYSADCNVFGGGTEVVVK
 | 168 | 1.02 | 98G10-6 (antibody, V domains shown, also called 98G10 T81Y (VH), T18R/C80P (VL)) VH: QEQLEESGGDLVKPEGSLTLTCTASGFSFSASYWICWVRQAPGKGLEWIACIYGGSSGSAYYASWAKGRFTISKTSSTTVYLQMTSLTAADTATYFCARAGYYNYGSAGDIYPSSFKLWGPGTLVTVSS VL: DIVMTQTPASVEAAVGGRVTINCQASQSISTALAWYQQKPGQPPKLLIYTASKVASGVPSRFSGSGSGTQFTLTISDLEPADAATYYCQNYYYSSSSITFGGGTEVVVK

Second part, the binder before the results:

Binder | Fold decrease in affinity [1] [fold] | EC50 [2] [pM] | Fold decrease in affinity [3] [fold]
98G10-1 (mutated antibody of Table 17-7) (antibody, V domains shown, also called 98G10 C80P (VL)) VH: QEQLEESGGDLVKPEGSLTLTCTASGFSFSASYWICWVRQAPGKGLEWIACIYGGSSGSAYYASWAKGRFTISKTSSTTVTLQMTSLTAADTATYFCARAGYYNYGSAGDIYPSSFKLWGPGTLVTVSS VL: DIVMTQTPASVEAAVGGTVTINCQASQSISTALAWYQQKPGQPPKLLIYTASKVASGVPSRFSGSGSGTQFTLTISDLEPADAATYYCQNYYYSSSSITFGGGTEVVVK |  | 173 | 1.05
98G10-2 (antibody, V domains shown, also called 98G10 T81Y (VH)) VH: QEQLEESGGDLVKPEGSLTLTCTASGFSFSASYWICWVRQAPGKGLEWIACIYGGSSGSAYYASWAKGRFTISKTSSTTVYLQMTSLTAADTATYFCARAGYYNYGSAGDIYPSSFKLWGPGTLVTVSS VL: DIVMTQTPASVEAAVGGTVTINCQASQSISTALAWYQQKPGQPPKLLIYTASKVASGVPSRFSGSGSGTQFTLTISDLECADAATYYCQNYYYSSSSITFGGGTEVVVK |  | 48.3 | 0.29
98G10-4 (antibody, V domains shown, also called 98G10 T23K (VH), C80P (VL)) VH: QEQLEESGGDLVKPEGSLTLTCKASGFSFSASYWICWVRQAPGKGLEWIACIYGGSSGSAYYASWAKGRFTISKTSSTTVTLQMTSLTAADTATYFCARAGYYNYGSAGDIYPSSFKLWGPGTLVTVSS VL: DIVMTQTPASVEAAVGGTVTINCQASQSISTALAWYQQKPGQPPKLLIYTASKVASGVPSRFSGSGSGTQFTLTISDLEPADAATYYCQNYYYSSSSITFGGGTEVVVK |  | 177 | 1.07
98G10-5 (antibody, V domains shown, also called 98G10 T18R/C80P (VL)) VH: QEQLEESGGDLVKPEGSLTLTCTASGFSFSASYWICWVRQAPGKGLEWIACIYGGSSGSAYYASWAKGRFTISKTSSTTVTLQMTSLTAADTATYFCARAGYYNYGSAGDIYPSSFKLWGPGTLVTVSS VL: DIVMTQTPASVEAAVGGRVTINCQASQSISTALAWYQQKPGQPPKLLIYTASKVASGVPSRFSGSGSGTQFTLTISDLEPADAATYYCQNYYYSSSSITFGGGTEVVVK |  | 238 | 1.44
98G10-3 (antibody, V domains shown, also called 98G10 T81Y (VH), C80P (VL)) VH: QEQLEESGGDLVKPEGSLTLTCTASGFSFSASYWICWVRQAPGKGLEWIACIYGGSSGSAYYASWAKGRFTISKTSSTTVYLQMTSLTAADTATYFCARAGYYNYGSAGDIYPSSFKLWGPGTLVTVSS VL: DIVMTQTPASVEAAVGGTVTINCQASQSISTALAWYQQKPGQPPKLLIYTASKVASGVPSRFSGSGSGTQFTLTISDLEPADAATYYCQNYYYSSSSITFGGGTEVVVK |  | 176 | 1.06
